Measurements published in patent US20220213227A1 (published 2022).

Biological target: T1, soluble extracellular region of cynomolgus monkey CD38 antigen fused to a 6-His-tag (UniProt Q5VAN0 45-301)
T1 chain: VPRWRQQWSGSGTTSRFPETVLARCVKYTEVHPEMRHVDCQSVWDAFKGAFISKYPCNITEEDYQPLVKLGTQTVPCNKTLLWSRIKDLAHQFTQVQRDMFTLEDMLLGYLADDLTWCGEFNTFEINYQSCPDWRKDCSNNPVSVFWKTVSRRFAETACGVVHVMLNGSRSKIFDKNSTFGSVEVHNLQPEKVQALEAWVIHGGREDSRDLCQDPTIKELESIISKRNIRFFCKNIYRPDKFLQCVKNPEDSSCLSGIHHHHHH
Test: SPR

Kd: 1 nM
B1: chimeric 9G7 antibody (antibody, V domains shown)
VH: QVTLKESGPGILQPSQTLSLTCSFSGLSLSTSGKGVGWIRQPSGKGLEWLAHIWWDDDKRYNPALKSRLTISKDTSSNQVFLKIASVDTADTATYYCARIELGRSYVMDYWGQGTTVTVSS
VL: DIVMTQSHKFMSTSVGDRVSISCKASQDVITSVAWFQQKPGQSPKLLIYSASYRYTGVPDRFTGSGSGTDFTFTISSVQAEDLAVYYCQQHYTIPLTFGAGTKLELKR
